Measured values: patent US20050009149A1
“And” between values parts separate entries of the source, which are not always exact repeats. Equal entries are not always repeated.

How the values were obtained:
zTNF4 = zTNF4 (UniProt Q9Y275); assay: cell-based or functional assay
[1] = molecular target: human TACI on Jurkat TACI KZ142 Luciferase cells (human) (UniProt O14836); assay: cell-based or functional assay
Chain of UniProt O14836 (O14836 whole entry): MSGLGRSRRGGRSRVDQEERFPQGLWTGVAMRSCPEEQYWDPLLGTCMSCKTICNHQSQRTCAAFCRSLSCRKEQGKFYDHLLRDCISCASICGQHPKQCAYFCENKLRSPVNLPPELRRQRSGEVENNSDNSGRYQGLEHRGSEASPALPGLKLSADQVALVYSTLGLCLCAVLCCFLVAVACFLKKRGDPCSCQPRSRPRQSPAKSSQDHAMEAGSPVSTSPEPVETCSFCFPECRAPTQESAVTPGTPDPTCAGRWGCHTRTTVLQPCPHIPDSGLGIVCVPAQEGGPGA

EC50, inhibition of zTNF4-stimulated human B-cell proliferation (3H-thymidine incorporation) (zTNF4)	fold effectiveness against TACI-Fc5, inhibition of zTNF4-induced B-cell proliferation (zTNF4)	fold efficiency at inhibiting zTNF4-stimulated proliferation of human B-cells (zTNF4)	luciferase responsiveness of Jurkat TACI KZ142 Luciferase cells [1]	Substance
1.1 nM				TACI-Fc fusion protein (from UniProt O14836 1-165)
0.057 nM	19 times	10 fold		TACI-NC1 (fusion of an extracellular domain of TACI and the NC1 domain of human collagen X, with Glu-Glu tag)
			18 fold and 10 fold	zTNF4 (from UniProt Q9Y275 134-285) (ligand)
